Data as given in the supplement of paper PMC9428881.
± gives the standard error.

Test: background-corrected fluorescence of 3'-dye-labeled ssDNA relative to brightest sequence (3'-GCGCG) (fraction); higher = brighter dye fluorescence (less quenching)
Outline: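 Subtracting background from unlabeled oligos and scaling to the brightest sequence gave the reported fluorescence. Single-stranded DNA bearing a 3' Cy3 or Cy5 dye next to each of 1024 permuted pentamers was assembled on glass slides by light-directed phosphoramidite synthesis. Following a 2 h r.t. acetonitrile wash, slides were scanned at 532 or 635 nm before and after overnight ethylenediamine/ethanol deprotection, and values were averaged over 10 features per array and at least 3 syntheses.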

Row | Sequence | background-corrected fluorescence (dye: Cy3 (3' terminal)) | background-corrected fluorescence (dye: Cy5 (3' terminal))
1 | TTTTTTGAGCATGCTGCTGCTTTTTTTTTTTTTTTCTAAA [AAATC] | 0.569 ± 0.008 | 0.457 ± 0.021
2 | TTTTTTGATCAGCAGCAGCATTTTTTTTTTTTTTTCGTTT [TTTGC] | 0.528 ± 0.017 | 0.393 ± 0.026
3 | TTTTTTGATCAGCAGCATCATTTTTTTTTTTTTTTCGTTG [GTTGC] | 0.533 ± 0.023 | 0.422 ± 0.051
4 | TTTTTTGATCAGCAGCATGATTTTTTTTTTTTTTTCGTTC [CTTGC] | 0.417 ± 0.036 | 0.321 ± 0.028
5 | TTTTTTGATCAGCAGCATGCTTTTTTTTTTTTTTTCGTTA [ATTGC] | 0.561 ± 0.012 | 0.398 ± 0.052
6 | TTTTTTGATCAGCATCAGCATTTTTTTTTTTTTTTCGTGT [TGTGC] | 0.571 ± 0.022 | 0.466 ± 0.037
7 | TTTTTTGATCAGCATCATCATTTTTTTTTTTTTTTCGTGG [GGTGC] | 0.622 ± 0.021 | 0.483 ± 0.033
8 | TTTTTTGATCAGCATCATGATTTTTTTTTTTTTTTCGTGC | 0.504 ± 0.033 | 0.397 ± 0.027
9 | TTTTTTGATCAGCATCATGCTTTTTTTTTTTTTTTCGTGA [AGTGC] | 0.634 ± 0.016 | 0.531 ± 0.037
10 | TTTTTTGATCAGCATGAGCATTTTTTTTTTTTTTTCGTCT [TCTGC] | 0.485 ± 0.02 | 0.36 ± 0.015
11 | TTTTTTGATCAGCATGATCATTTTTTTTTTTTTTTCGTCG [GCTGC] | 0.609 ± 0.03 | 0.463 ± 0.024
12 | TTTTTTGATCAGCATGATGATTTTTTTTTTTTTTTCGTCC [CCTGC] | 0.4 ± 0.0041 | 0.315 ± 0.021
13 | TTTTTTGATCAGCATGATGCTTTTTTTTTTTTTTTCGTCA [ACTGC] | 0.547 ± 0.03 | 0.378 ± 0.032
14 | TTTTTTGATCAGCATGCGCATTTTTTTTTTTTTTTCGTAT [TATGC] | 0.555 ± 0.018 | 0.401 ± 0.064
15 | TTTTTTGATCAGCATGCTCATTTTTTTTTTTTTTTCGTAG [GATGC] | 0.615 ± 0.024 | 0.435 ± 0.03
16 | TTTTTTGATCAGCATGCTGATTTTTTTTTTTTTTTCGTAC | 0.49 ± 0.01 | 0.376 ± 0.053
17 | TTTTTTGATCAGCATGCTGCTTTTTTTTTTTTTTTCGTAA [AATGC] | 0.553 ± 0.045 | 0.428 ± 0.024
18 | TTTTTTGATCATCAGCAGCATTTTTTTTTTTTTTTCGGTT [TTGGC] | 0.545 ± 0.0074 | 0.427 ± 0.024
19 | TTTTTTGATCATCAGCATCATTTTTTTTTTTTTTTCGGTG [GTGGC] | 0.574 ± 0.02 | 0.484 ± 0.031
20 | TTTTTTGATCATCAGCATGATTTTTTTTTTTTTTTCGGTC [CTGGC] | 0.506 ± 0.035 | 0.407 ± 0.042
21 | TTTTTTGATCATCAGCATGCTTTTTTTTTTTTTTTCGGTA [ATGGC] | 0.589 ± 0.071 | 0.488 ± 0.029
22 | TTTTTTGATCATCATCAGCATTTTTTTTTTTTTTTCGGGT [TGGGC] | 0.7 ± 0.013 | 0.616 ± 0.068
23 | TTTTTTGATCATCATCATCATTTTTTTTTTTTTTTCGGGG [GGGGC] | 0.673 ± 0.024 | 0.65 ± 0.044

Row | Sequence | background-corrected fluorescence (dye: Cy3 (3' terminal)) | background-corrected fluorescence (dye: Cy5 (3' terminal))
24 | TTTTTTGATCATCATCATGATTTTTTTTTTTTTTTCGGGC | 0.576 ± 0.032 | 0.487 ± 0.024
25 | TTTTTTGATCATCATCATGCTTTTTTTTTTTTTTTCGGGA [AGGGC] | 0.7 ± 0.0078 | 0.715 ± 0.052
26 | TTTTTTGATCATCATGAGCATTTTTTTTTTTTTTTCGGCT | 0.583 ± 0.016 | 0.431 ± 0.021
27 | TTTTTTGATCATCATGATCATTTTTTTTTTTTTTTCGGCG [GCGGC] | 0.704 ± 0.027 | 0.611 ± 0.053
28 | TTTTTTGATCATCATGATGATTTTTTTTTTTTTTTCGGCC [CCGGC] | 0.465 ± 0.022 | 0.364 ± 0.027
29 | TTTTTTGATCATCATGATGCTTTTTTTTTTTTTTTCGGCA [ACGGC] | 0.612 ± 0.015 | 0.493 ± 0.034
30 | TTTTTTGATCATCATGCGCATTTTTTTTTTTTTTTCGGAT [TAGGC] | 0.593 ± 0.017 | 0.472 ± 0.033
31 | TTTTTTGATCATCATGCTCATTTTTTTTTTTTTTTCGGAG [GAGGC] | 0.603 ± 0.02 | 0.487 ± 0.024
32 | TTTTTTGATCATCATGCTGATTTTTTTTTTTTTTTCGGAC [CAGGC] | 0.531 ± 0.011 | 0.389 ± 0.034
33 | TTTTTTGATCATCATGCTGCTTTTTTTTTTTTTTTCGGAA [AAGGC] | 0.656 ± 0.032 | 0.548 ± 0.058
34 | TTTTTTGATCATGAGCAGCATTTTTTTTTTTTTTTCGCTT | 0.51 ± 0.017 | 0.409 ± 0.047
35 | TTTTTTGATCATGAGCATCATTTTTTTTTTTTTTTCGCTG [GTCGC] | 0.534 ± 0.014 | 0.423 ± 0.043
36 | TTTTTTGATCATGAGCATGATTTTTTTTTTTTTTTCGCTC [CTCGC] | 0.452 ± 0.039 | 0.318 ± 0.024
37 | TTTTTTGATCATGAGCATGCTTTTTTTTTTTTTTTCGCTA [ATCGC] | 0.549 ± 0.026 | 0.399 ± 0.027
38 | TTTTTTGATCATGATCAGCATTTTTTTTTTTTTTTCGCGT [TGCGC] | 0.783 ± 0.029 | 0.697 ± 0.048
39 | TTTTTTGATCATGATCATCATTTTTTTTTTTTTTTCGCGG [GGCGC] | 0.814 ± 0.019 | 0.793 ± 0.047
40 | TTTTTTGATCATGATCATGATTTTTTTTTTTTTTTCGCGC | 0.759 ± 0.032 | 0.66 ± 0.052
41 | TTTTTTGATCATGATCATGCTTTTTTTTTTTTTTTCGCGA [AGCGC] | 0.823 ± 0.027 | 0.792 ± 0.034
42 | TTTTTTGATCATGATGAGCATTTTTTTTTTTTTTTCGCCT [TCCGC] | 0.488 ± 0.028 | 0.369 ± 0.03
43 | TTTTTTGATCATGATGATCATTTTTTTTTTTTTTTCGCCG [GCCGC] | 0.647 ± 0.017 | 0.506 ± 0.046
44 | TTTTTTGATCATGATGATGATTTTTTTTTTTTTTTCGCCC [CCCGC] | 0.406 ± 0.032 | 0.308 ± 0.055
45 | TTTTTTGATCATGATGATGCTTTTTTTTTTTTTTTCGCCA [ACCGC] | 0.49 ± 0.03 | 0.423 ± 0.051
46 | TTTTTTGATCATGATGCGCATTTTTTTTTTTTTTTCGCAT [TACGC] | 0.517 ± 0.0084 | 0.395 ± 0.021

Row | Sequence | background-corrected fluorescence (dye: Cy3 (3' terminal)) | background-corrected fluorescence (dye: Cy5 (3' terminal))
47 | TTTTTTGATCATGATGCTCATTTTTTTTTTTTTTTCGCAG [GACGC] | 0.595 ± 0.025 | 0.446 ± 0.029
48 | TTTTTTGATCATGATGCTGATTTTTTTTTTTTTTTCGCAC [CACGC] | 0.435 ± 0.025 | 0.342 ± 0.06
49 | TTTTTTGATCATGATGCTGCTTTTTTTTTTTTTTTCGCAA [AACGC] | 0.552 ± 0.031 | 0.443 ± 0.035
50 | TTTTTTGATCATGCGCAGCATTTTTTTTTTTTTTTCGATT [TTAGC] | 0.602 ± 0.031 | 0.404 ± 0.025
51 | TTTTTTGATCATGCGCATCATTTTTTTTTTTTTTTCGATG [GTAGC] | 0.552 ± 0.021 | 0.438 ± 0.024
52 | TTTTTTGATCATGCGCATGATTTTTTTTTTTTTTTCGATC [CTAGC] | 0.457 ± 0.018 | 0.354 ± 0.027
53 | TTTTTTGATCATGCGCATGCTTTTTTTTTTTTTTTCGATA [ATAGC] | 0.595 ± 0.036 | 0.427 ± 0.025
54 | TTTTTTGATCATGCTCAGCATTTTTTTTTTTTTTTCGAGT [TGAGC] | 0.684 ± 0.026 | 0.477 ± 0.058
55 | TTTTTTGATCATGCTCATCATTTTTTTTTTTTTTTCGAGG [GGAGC] | 0.723 ± 0.029 | 0.534 ± 0.035
56 | TTTTTTGATCATGCTCATGATTTTTTTTTTTTTTTCGAGC | 0.547 ± 0.018 | 0.425 ± 0.035
57 | TTTTTTGATCATGCTCATGCTTTTTTTTTTTTTTTCGAGA [AGAGC] | 0.695 ± 0.032 | 0.53 ± 0.037
58 | TTTTTTGATCATGCTGAGCATTTTTTTTTTTTTTTCGACT [TCAGC] | 0.488 ± 0.019 | 0.363 ± 0.028
59 | TTTTTTGATCATGCTGATCATTTTTTTTTTTTTTTCGACG [GCAGC] | 0.602 ± 0.013 | 0.491 ± 0.024
60 | TTTTTTGATCATGCTGATGATTTTTTTTTTTTTTTCGACC [CCAGC] | 0.4 ± 0.016 | 0.324 ± 0.03
61 | TTTTTTGATCATGCTGATGCTTTTTTTTTTTTTTTCGACA [ACAGC] | 0.512 ± 0.028 | 0.429 ± 0.053
62 | TTTTTTGATCATGCTGCGCATTTTTTTTTTTTTTTCGAAT [TAAGC] | 0.599 ± 0.04 | 0.402 ± 0.026
63 | TTTTTTGATCATGCTGCTCATTTTTTTTTTTTTTTCGAAG [GAAGC] | 0.609 ± 0.013 | 0.463 ± 0.021
64 | TTTTTTGATCATGCTGCTGATTTTTTTTTTTTTTTCGAAC [CAAGC] | 0.48 ± 0.039 | 0.366 ± 0.022
65 | TTTTTTGATCATGCTGCTGCTTTTTTTTTTTTTTTCGAAA [AAAGC] | 0.576 ± 0.032 | 0.475 ± 0.057
66 | TTTTTTGATGAGCAGCAGCATTTTTTTTTTTTTTTCCTTT | 0.492 ± 0.016 | 0.347 ± 0.023
67 | TTTTTTGATGAGCAGCATCATTTTTTTTTTTTTTTCCTTG [GTTCC] | 0.547 ± 0.021 | 0.378 ± 0.025
68 | TTTTTTGATGAGCAGCATGATTTTTTTTTTTTTTTCCTTC [CTTCC] | 0.362 ± 0.03 | 0.288 ± 0.03
